# B1: C-rich (GC-rich) 24-mer dsRNA, Zfr-RBNS1 (dsRNA)
# RNA 1: AAUGACACCCAAAAUGACACCCAA
# RNA 2: UUGGGUGUCAUUUUGGGUGUCAUU
# B2: U-rich (AU-rich) 24-mer dsRNA, Zfr-RBNS3 (dsRNA)
# RNA 1: AAUGUUGUAAAAAAUGUUGUAAAA
# RNA 2: UUUUACAACAUUUUUUACAACAUU
# B3: C-rich (GC-rich) 12-mer dsRNA, Zfr-RBNS1 (dsRNA)
# RNA 1: AAUGACACCCAA
# RNA 2: UUGGGUGUCAUU
# B4: C-rich 24-mer RNA : G-rich DNA hybrid, Zfr-RBNS1 (DNA:RNA)
# RNA: AAUGACACCCAAAAUGACACCCAA
# DNA: TTGGGTGTCATGGGTGTCAT
# B5: U-rich 24-mer RNA : A-rich DNA hybrid, Zfr-RBNS3 (DNA:RNA)
# RNA: AAUGUUGUAAAAAAUGUUGUAAAA
# DNA: TTTTACAACATTTTTACAACATT
# B6: U-rich (AU-rich) 12-mer dsRNA, Zfr-RBNS3 (dsRNA)
# RNA 1: AAUGUUGUAAAA
# RNA 2: UUUUACAACAUU
# Legend:
# [1] = target: T1, ZFRlong;ILF2 (29-390) (human;human?, UniProt Q96KR1;Q12905 317-1074;29-390, |); assay: EMSA; 4 mM Mg2+; EMSA: 20 mM HEPES pH 7.5, 150 mM K acetate, 4 mM Mg acetate, 1 mM DTT, 0.5 uM nucleic acid, 1 h on ice; 8% native PAGE in 0.5x TBE at 4 C; settings: protein: recombinant;recombinant, tags: N-terminal His6;N-terminal His6, copies: 1;1, blunt
# [2] = target: T1, ZFRlong;ILF2 (29-390); assay: EMSA; 4 mM Mg2+; affinity similar to 24-mer dsRNA; EMSA: 20 mM HEPES pH 7.5, 150 mM K acetate, 4 mM Mg acetate, 1 mM DTT, 0.5 uM nucleic acid, 1 h on ice; 8% native PAGE in 0.5x TBE at 4 C; settings: protein: recombinant;recombinant, tags: N-terminal His6;N-terminal His6, copies: 1;1, label: Cy5 on RNA strand (5' per Methods), RNA:DNA duplex
# [3] = label: Cy5 on strand 1 (5' per Methods)
# [4] = label: DY681 on strand 1 (5' per Methods)
# T1 sequence (Q96KR1 317-1074, chain 1 of 2): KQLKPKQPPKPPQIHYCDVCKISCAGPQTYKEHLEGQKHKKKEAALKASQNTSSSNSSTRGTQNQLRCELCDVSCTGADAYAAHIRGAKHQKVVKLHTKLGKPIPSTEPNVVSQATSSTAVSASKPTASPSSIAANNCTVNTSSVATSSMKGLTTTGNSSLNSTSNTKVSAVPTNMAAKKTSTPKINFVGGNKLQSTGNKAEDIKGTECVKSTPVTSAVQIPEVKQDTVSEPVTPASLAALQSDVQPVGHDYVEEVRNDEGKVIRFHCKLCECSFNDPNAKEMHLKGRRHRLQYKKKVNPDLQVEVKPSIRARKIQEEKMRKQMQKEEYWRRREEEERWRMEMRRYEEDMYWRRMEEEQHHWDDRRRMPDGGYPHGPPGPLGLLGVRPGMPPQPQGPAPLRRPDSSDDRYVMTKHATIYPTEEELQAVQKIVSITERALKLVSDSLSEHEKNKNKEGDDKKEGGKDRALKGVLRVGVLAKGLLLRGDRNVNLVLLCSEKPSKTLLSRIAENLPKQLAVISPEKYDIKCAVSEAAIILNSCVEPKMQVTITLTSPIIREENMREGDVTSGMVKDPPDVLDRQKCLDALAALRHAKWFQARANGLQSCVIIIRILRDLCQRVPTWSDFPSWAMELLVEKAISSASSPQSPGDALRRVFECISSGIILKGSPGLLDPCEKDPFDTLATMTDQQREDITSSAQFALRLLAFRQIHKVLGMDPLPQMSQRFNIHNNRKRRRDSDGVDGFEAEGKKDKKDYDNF
# T1 sequence (Q12905 29-390, chain 2 of 2): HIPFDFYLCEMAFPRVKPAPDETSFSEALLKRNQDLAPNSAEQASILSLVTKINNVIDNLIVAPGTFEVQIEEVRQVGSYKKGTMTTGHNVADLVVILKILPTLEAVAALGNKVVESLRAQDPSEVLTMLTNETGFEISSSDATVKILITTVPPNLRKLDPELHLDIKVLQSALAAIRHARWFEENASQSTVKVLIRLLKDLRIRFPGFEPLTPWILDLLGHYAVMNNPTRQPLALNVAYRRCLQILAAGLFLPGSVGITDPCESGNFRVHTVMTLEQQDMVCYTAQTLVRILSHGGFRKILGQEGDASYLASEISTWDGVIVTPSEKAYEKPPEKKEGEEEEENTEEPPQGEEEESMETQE
binder,measurement,setting,value
B1,Kd,[1]; [3],~300 nM
B2,Kd,[1]; [3],~300 nM
B3,Kd,[1]; [4],~800 nM
B4,binding result,[2]; printed DNA 4 nt short,binds
B5,binding result,[2]; printed DNA 1 nt short,binds
B6,Kd,[1]; [4],~800 nM

# — paper doi:10.1101/2022.06.15.495552, “A network of DZF proteins controls alternative splicing regulation and fidelity”
